Data published in PMC4190069.

How the values were obtained:
[1] = biological target: Rad51 (wild type);Rad52 (wild type);RPA (wild type) (Saccharomyces cerevisiae;Saccharomyces …, UniProt P25454;P06778;P22336;P26754;P26755 1-400;1-471;1-621;1-273;1-122, ||); assay: bead pull-down
[2] = biological target: RPA (wild type);Rad52 (wild type) (Saccharomyces cerevisiae;Saccharomyces …, UniProt P22336;P26754;P26755;P06778 1-621;1-273;1-122;1-471, |); assay: bead pull-down
Sequence of RPA (wild type);Rad52 (wild type) (P22336 whole entry, chain 1 of 4): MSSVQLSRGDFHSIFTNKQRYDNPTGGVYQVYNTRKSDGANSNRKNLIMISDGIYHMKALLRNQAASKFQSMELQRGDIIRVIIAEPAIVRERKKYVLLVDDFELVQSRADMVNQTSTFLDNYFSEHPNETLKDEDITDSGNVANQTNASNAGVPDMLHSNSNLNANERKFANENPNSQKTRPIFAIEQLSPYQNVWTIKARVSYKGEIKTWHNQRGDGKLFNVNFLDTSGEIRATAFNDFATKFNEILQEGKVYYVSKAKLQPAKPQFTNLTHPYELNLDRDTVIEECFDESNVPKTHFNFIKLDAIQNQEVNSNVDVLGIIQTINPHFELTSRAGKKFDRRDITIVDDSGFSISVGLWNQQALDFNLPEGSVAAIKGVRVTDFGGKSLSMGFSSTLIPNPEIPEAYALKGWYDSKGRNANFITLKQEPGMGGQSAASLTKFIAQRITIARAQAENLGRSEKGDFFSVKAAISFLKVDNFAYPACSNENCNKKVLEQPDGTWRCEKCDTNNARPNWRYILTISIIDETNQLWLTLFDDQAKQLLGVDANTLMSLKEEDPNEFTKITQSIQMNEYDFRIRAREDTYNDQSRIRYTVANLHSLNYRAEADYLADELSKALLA
Sequence of RPA (wild type);Rad52 (wild type) (P26754 whole entry, chain 2 of 4): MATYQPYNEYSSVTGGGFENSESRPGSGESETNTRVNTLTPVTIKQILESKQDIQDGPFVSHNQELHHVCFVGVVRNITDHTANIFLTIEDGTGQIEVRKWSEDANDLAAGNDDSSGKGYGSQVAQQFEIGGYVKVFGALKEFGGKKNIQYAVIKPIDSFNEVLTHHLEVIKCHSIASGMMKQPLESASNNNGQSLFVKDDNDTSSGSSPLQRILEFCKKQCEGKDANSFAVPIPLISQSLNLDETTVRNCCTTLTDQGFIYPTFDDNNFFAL
Sequence of RPA (wild type);Rad52 (wild type) (P26755 whole entry, chain 3 of 4): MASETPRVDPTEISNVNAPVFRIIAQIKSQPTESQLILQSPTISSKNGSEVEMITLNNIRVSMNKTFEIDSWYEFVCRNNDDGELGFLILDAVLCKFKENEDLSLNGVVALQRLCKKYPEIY
Sequence of RPA (wild type);Rad52 (wild type) (P06778 whole entry, chain 4 of 4): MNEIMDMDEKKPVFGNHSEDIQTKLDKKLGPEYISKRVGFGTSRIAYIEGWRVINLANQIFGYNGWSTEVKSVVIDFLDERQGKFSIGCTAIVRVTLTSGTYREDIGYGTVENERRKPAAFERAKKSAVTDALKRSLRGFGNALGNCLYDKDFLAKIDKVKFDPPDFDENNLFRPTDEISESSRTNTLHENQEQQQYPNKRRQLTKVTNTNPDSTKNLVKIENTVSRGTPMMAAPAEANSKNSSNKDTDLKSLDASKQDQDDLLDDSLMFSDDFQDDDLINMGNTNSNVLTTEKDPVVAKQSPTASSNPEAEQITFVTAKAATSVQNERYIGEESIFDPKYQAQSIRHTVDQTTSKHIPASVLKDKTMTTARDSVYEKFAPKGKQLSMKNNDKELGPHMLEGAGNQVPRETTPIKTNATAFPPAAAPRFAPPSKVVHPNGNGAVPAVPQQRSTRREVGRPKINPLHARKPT

B1: 74-nt biotinylated ssDNA oligo (ssDNA)
DNA: TTTTTTGTAAAACGACGGCCAGTGCCAAGCTTGCATGCCTGCAGGTCGACTCTAGAGGATCCCCGGGTACCGAG
modifications: 5' biotin
- binding result [1]: binds
- binding result [2]: binds
